Source: US12692524B2, “Sialyltransferases and their use in producing sialylated oligosaccharides” (Chr. Hansen A/S, priority 2017, dated 2026)

B1: SiaT19: sialyltransferase of Photobacterium leiognathi JT-SHIZ-145, acc. BAF91416, SEQ ID NO: 30 (protein, listed as Photobacterium leiognathi)
chain: MNDNQNTVDVVVSTVNDNVIENNTYQVKPIDTPTTFDSYSWIQTCGTPILKDDEKYSLSFDFVAPELDQDEKFCFEFTGDVDGKRYVTQTNLTVVAPTLEVYVDHASLPSLQQLMKIIQQKNEYSQNERFISWGRIRLTEDNAEKLNAHIYPLAGNNTSQELVDAVIDYADSKNRLNLELNTNTGHSFRNIAPILRATSSKNNILISNINLYDDGSAEYVSLYNWKDTDNKSQKLSDSFLVLKDYLNGISSEKPNGIYSIYNWHQLYHSSYYFLRKDYLTVETKLHDLREYLGGSLKQMSWDTFSQLSKGDKELFLNIVGFDQEKLQQEYQQSELPNFVFTGTTTWAGGETKEYYAQQQVNVVNNAINETSPYYLGREHDLFFKGHPRGGIINDIILGSFNNMIDIPAKVSFEVLMMTGMLPDTVGGIASSLYFSIPAEKVSFIVFTSSDTITDREDALKSPLVQVMMTLGIVKEKDVLFWC
B2: SiaT9: sialyltransferase of Vibrio sp. JT-FAJ-16, acc. BAF91160, SEQ ID NO: 2 (protein, listed as Vibrio sp.)
chain: MNNDNSTTTNNNAIEIYVDRATLPTIQQMTKIVSQKTSNKKLISWSRYPITDKSLLKKINAEFFKEQFELTESLKNIILSENIDNLIIHGNTLWSIDVVDIIKEVNLLGKNIPIELHFYDDGSAEYVRIYEFSKLPESEQKYKTSLSKNNIKFSIDGTDSFKNTIENIYGFSQLYPTTYHMLRADIFDTTLKINPLRELLSNNIKQMKWDYFKDFNYKQKDIFYSLTNFNPKEIQEDFNKNSNKNFIFIGSNSATATAEEQINIISEAKKENSSIITNSISDYDLFFKGHPSATFNEQIINAHDMIEINNKIPFEALIMTGILPDAVGGMGSSVFFSIPKEVKNKFVFYKSGTDIENNSLIQVMLKLNLINRDNIKLISDI

Legend:
[1] = In vitro kinetics (Km, Vmax), donor substrate CMP-Neu5Ac; assay type: biochemical; conditions: 30° C., pH7.5, protein extract
Experimental: (§1) To rank the best performing sialyltransferases, their Km values for donor and acceptor substrates were determined in vitro. Escherichia coli BL21(DE3) strain #287 was used for overproduction of the enzymes. Cells were incubated in 100 ml 2YT medium in shaking flasks supplemented with 100 μg m^−1 ampicillin at 30° C. until an OD600 of 0.3 was reached. Then, 0.3 mM IPTG was added and the incubation was continued for 12 to 16 hours. Cells were harvested by centrifugation and mechanically disrupted in a defined volume of 50 mM Tris-HCl pH7.5 using glass beads. The protein extract was kept on ice until the assay started. The in vitro assay was carried out in a total volume of 50 μl including 50 mM Tris-HCl pH7.5, 5 mM MgCl2 and varying concentrations of CMP-Neu5Ac (0.05-30 mM) as well as of lactose or LNT (0.1-50 mM). The assay started with the addition of 35 to 750 μg protein extract. After 1 to 10 minutes of incubation at 30° C., the assay was inactivated at 95° C. for 5 minutes. Product formation was determined by mass spectrometry. Data were evaluated using the enzyme kinetic module of SigmaPlot v12.5 to calculate Km and Vmax.
(§2) Their kinetic parameters for CMP-Neu5Ac and LNT as well as lactose are depicted in Table 6.

[2] = In vitro kinetics (Km, Vmax), acceptor substrate LNT; assay type: biochemical; conditions: 30° C., pH7.5, protein extract
Experimental: as §1, §2

[3] = In vivo screening in E. coli #1363/#1730 with lactose as acceptor, sialyllactose identified by TLC; assay type: cell-based, Escherichia coli BL21(DE3); conditions: 1.5 mM lactose, 72 to 96 hours, qualitative via TLC
Summary of the method: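 E. coli BL21(DE3) #1363/#1730 expressing sialyltransferases were grown at 30 °C in mineral salts medium with 2% glucose and induced with 0.3 mM IPTG. After 1 h, 1.5 mM lactose was added, plus 1.5 mM sialic acid for #1730, and incubation ran 72–96 h. Cell lysates were analysed by silica TLC with thymol staining.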

[4] = In vitro kinetics (Km, Vmax), acceptor substrate lactose; assay type: biochemical; conditions: 30° C., pH7.5, protein extract
Experimental: as §1, §2

[5] = Batch fermentation of LNT-producing E. coli BL21(DE3) #2130 expressing sialyltransferases, TLC of intracellular fraction; assay type: cell-based, Escherichia coli BL21(DE3); conditions: strain #2130, 3 mM lactose, 3 mM sialic acid, 48 hours after induction, validated by mass spectrometry
Text: Escherichia coli BL21(DE3) strain #534 was used to construct a lacto-N-tetraose (LNT) producing strain. The β-1,3-N-acetylglucosaminyltransferase gene IgtA from Neisseria meningitidis MC58 (acc. no. NP_274923) was codon-optimized for expression in E. coli and prepared synthetically by gene synthesis. Together with the gene galT, encoding a galactose-1-phosphate uridylyltransferase from E. coli K-12 substr. MG1655 (acc. no. NP_415279), that was similarly obtained by gene synthesis, IgtA was inserted by transposition (SEQ ID NO: 188) using plasmid pEcomar-IgtA-galT. To enhance de novo synthesis of UDP-N-acetylglucosamine, genes encoding L-glutamine:D-fuctose-6-phosphate aminotransferase (glmS), phosphoglucosamine mutase from E. coli K-12 substr. MG1655 (glmM) and N-acetylglucosamine-1-phosphate uridyltransferase/glucosamine-1-phosphate acetyltransferase (glmU) from E. coli K-12 substr. MG1655 (acc. no. NP_418185, NP_417643, NP_418186, respectively) were codon-optimized and obtained by gene synthesis. The operon glmUM was cloned under the control of constitutive tetracyclin promoter Ptet while glmS was cloned under the constitutive PT5 promoter. […]

Molecule	Km [1] [µM]	Vmax CMP-Neu5Ac [1] [µmol/min]	Km [2] [µM]	Vmax LNT [2] [µmol/min]	Production of sialyllactose in-vivo [3]	Km [4] [µM]	Vmax Lactose [4] [µmol/min]	Intracellular formation of sialyllacto-N-tetraose [5]
B1	1100	0.09	2900	0.04	6′-SL	3000	0.09	LST-b
B2	960	0.16	2900	0.15	3′-SL	2900	0.18	LST-a
